Experimental data reported in EP1680442B1 (Bioincept, LLC., dated 2011).
Ends that are not written are not given here.

Target: T1, AbPIF-1(15)
T1 construct: also called AbPIP-1(15); PIF-1 antibody
Assay: competition ELISA, pAb coated at 4.5 ug/ml, unlabelled against biotinylated peptide

B1: sPIF-1(15) (peptide)
peptide: MVRIKPGSANKPSDD
modifications: not fully specified; also: flow cytometry form: FITC on N-terminus via β-alanine spacer
notes: Synthetic 15-residue peptide; In flow cytometry it carried FITC on the N-terminus through a b-alanine spacer; also called synthetic PIF-1; FITC sPIF-1(15)
IC50: 0.5 to 0.7 nM
